Measured values reported in patent EP4692114A1, “CALCITONIN ANALOGUE, AND DERIVATIVE THEREOF AND USE THEREOF” (Hangzhou Sciwind Biosciences Co., Ltd., priority 2023, dated 2024).
*1 amine or outer side, *2 acyl side, *3 side chain or, on linkers, in order; H or OH if unused. Where a SMILES comes first, the peptide text is derived from it. Primed or numbered codes have the meaning given here. The star is where a group is joined. C22 diacid = O=C(O)CCCCCCCCCCCCCCCCCCCCC(=O)*; C20 diacid = O=C(O)CCCCCCCCCCCCCCCCCCC(=O)*; C18 diacid = O=C(O)CCCCCCCCCCCCCCCCC(=O)*; γGlu = O=C(O)[C@H](CCC(=O)[*:2])N[*:1]; Inp′ = not defined here; Trx′ = not defined here; Inp = O=C(O)C1CCNCC1

Assays:
[1] = Heat accelerated stability assay under a neutral condition; type: physicochemical; details: pH about 7.4, 40°C
Method: The lyophilized powder (1 mg/mL) of calcitonin analogues or derivatives prepared in accordance with the method of Example 1 were mixed with sodium dihydrogen phosphate (1.42 mg/mL) and dissolved in ultrapure water in the indicated mass-volume ratios. After adjusting pH to about 7.4 with hydrochloric acid/sodium hydroxide, the solution was filtered into a sterilized vial in a clean bench using a 0.22 µm sterile filter. The vial was then capped and placed into the stability test chamber at 40°C. Detections were made on Days 7 (7d) and 26 (26d), and during the assay, changes in the characteristics and properties of the polypeptides were observed and recorded. The sample was then centrifuged for 3 min at 10000 rpm at 4°C, and the supernatant was transferred to a liquid phase sample vial for detecting the concentration and purity of the polypeptides using liquid phase chromatography described as below, wherein the concentration of the polypeptide = peak area/injection volume/extinction coefficient/60×flow rate, and the purity of the polypeptide = target peak area/total peak area× 100%.
Conditions of the reversed phase chromatography Flow rate: 1.0 ml/min; Autosampler temperature: 15°C; Column temperature: 25°C; Detection wavelengths: 280 nm and 214 nm; Mobile phase A: 100% H2O+0.05% TFA; Mobile phase B: 100% ACN; and Gradient of elution listed in Table 4: Table 4. Listing of the gradient of elution in the liquid phase chromatography
Results were shown below in Tables 5, 6, and 7. A difference of more than 5% in content as compared with the initial value was typically assumed (for example, as prescribed by the Chinese Pharmacopeia (2020 Edition)) to be a significant change. Within a reasonable margin of error, a decrease of less than 1% from the initial value to the detected content is denoted as "no change" below. Table 5. Changes in characteristics or properties in the heat accelerated stability assay

[2] = target: T1, human amylin receptor (AMY3) on CHO-K1/Gal5/AMY3 cells (human, UniProt P30988 25-474; O60896 24-148); assay: cell-based or functional assay
T1 sequence (looked up) 1: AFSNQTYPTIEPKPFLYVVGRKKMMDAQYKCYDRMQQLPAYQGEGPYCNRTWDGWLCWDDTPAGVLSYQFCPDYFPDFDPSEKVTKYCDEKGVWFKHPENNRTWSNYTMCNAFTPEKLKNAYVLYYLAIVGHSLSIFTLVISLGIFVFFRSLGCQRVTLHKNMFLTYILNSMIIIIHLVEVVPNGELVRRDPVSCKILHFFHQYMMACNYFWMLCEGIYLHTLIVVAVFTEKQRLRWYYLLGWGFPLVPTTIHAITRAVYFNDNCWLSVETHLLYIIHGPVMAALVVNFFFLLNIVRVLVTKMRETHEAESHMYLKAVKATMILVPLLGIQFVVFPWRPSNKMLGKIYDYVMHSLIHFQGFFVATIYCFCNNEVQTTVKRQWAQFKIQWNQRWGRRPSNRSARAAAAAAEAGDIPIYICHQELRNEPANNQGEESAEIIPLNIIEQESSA
T1 sequence (looked up) 2: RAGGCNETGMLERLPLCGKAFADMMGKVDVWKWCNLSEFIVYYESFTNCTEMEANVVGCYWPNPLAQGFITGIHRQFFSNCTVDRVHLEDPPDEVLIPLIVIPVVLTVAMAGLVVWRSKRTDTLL

EC50/nM, CRE-luciferase in amylin receptor/CRE-luc CHO cells [2] [nM] | further results | Molecule
 | Changes in characteristics or properties, 0d ([1]; 1 mg/mL, phosphate, 0d): Clear; Changes in characteristics or properties, 7d ([1]; 1 mg/mL, phosphate, 7d): Clear; Concentration change (7d-0d)/% ([1]; Day 7 vs Day 0, reversed phase chromatography): -1.678%; Purity Change% (7d-0d) ([1]; purity from reversed phase chromatography-214 nm, Day 7 vs Day 0): -1%; Purity Change% (26d-0d) ([1]; purity from reversed phase chromatography-214 nm, Day 26 vs Day 0): -3.9% | CC(C)C[C@H](NC(=O)[C@H](CCCNC(=N)N)NC(=O)CNC(=O)[C@H](CC(C)C)NC(=O)[C@@H](NC(=O)[C@H](C)NC(=O)[C@@H](NC(=O)[C@H](CO)NC(=O)[C@H](CC(C)C)NC(=O)[C@H](CCC(N)=O)NC(=O)[C@H](CO)NC(=O)[C@H](C)NC(=O)C1CCN(C(=O)CCCCCCCCCCCCCCCCC(=O)O)CC1)[C@@H](C)O)C(C)C)C(=O)N[C@@H](CO)C(=O)N[C@@H](CC(=O)O)C(=O)N[C@@H](CCC(=O)O)C(=O)N[C@@H](CC(C)C)C(=O)N[C@@H](Cc1c[nH]cn1)C(=O)N[C@@H](CCCNC(=N)N)C(=O)N[C@@H](CC(C)C)C(=O)N[C@@H](CCC(N)=O)C(=O)N[C@@H](CC(=O)O)C(=O)N[C@@H](Cc1ccc(O)cc1)C(=O)N1CCC[C@H]1C(=O)N[C@@H](CCCNC(=N)N)C(=O)N[C@H](C(=O)N[C@@H](CC(=O)O)C(=O)N[C@H](C(=O)NCC(=O)N[C@@H](CO)C(=O)NCC(=O)N[C@@H](CO)C(=O)N1CCC[C@H]1C(N)=O)C(C)C)[C@@H](C)O [M48] ({C18 diacid-Inp}-ASQLSTAVLGRLSDELHRLQDYPRTDVGSGSP-NH2)
0.017 |  | {C20 diacid-γGlu}-ASQLSTAVLGRLSQELHRLQDYPRTDVGSESP-NH2 (SMILES CC(C)C[C@H](NC(=O)[C@H](CCCNC(=N)N)NC(=O)CNC(=O)[C@H](CC(C)C)NC(=O)[C@@H](NC(=O)[C@H](C)NC(=O)[C@@H](NC(=O)[C@H](CO)NC(=O)[C@H](CC(C)C)NC(=O)[C@H](CCC(N)=O)NC(=O)[C@H](CO)NC(=O)[C@H](C)NC(=O)CC[C@H](NC(=O)CCCCCCCCCCCCCCCCCCC(=O)O)C(=O)O)[C@@H](C)O)C(C)C)C(=O)N[C@@H](CO)C(=O)N[C@@H](CCC(N)=O)C(=O)N[C@@H](CCC(=O)O)C(=O)N[C@@H](CC(C)C)C(=O)N[C@@H](Cc1c[nH]cn1)C(=O)N[C@@H](CCCNC(=N)N)C(=O)N[C@@H](CC(C)C)C(=O)N[C@@H](CCC(N)=O)C(=O)N[C@@H](CC(=O)O)C(=O)N[C@@H](Cc1ccc(O)cc1)C(=O)N1CCC[C@H]1C(=O)N[C@@H](CCCNC(=N)N)C(=O)N[C@H](C(=O)N[C@@H](CC(=O)O)C(=O)N[C@H](C(=O)NCC(=O)N[C@@H](CO)C(=O)N[C@@H](CCC(=O)O)C(=O)N[C@@H](CO)C(=O)N1CCC[C@H]1C(N)=O)C(C)C)[C@@H](C)O) [calcitonin derivative M21]
0.022 |  | {C22 diacid-γGlu}-ASQLSTAVLGRLSDELHRLQDYPRTDVGSGSP-NH2 (SMILES CC(C)C[C@H](NC(=O)[C@H](CCCNC(=N)N)NC(=O)CNC(=O)[C@H](CC(C)C)NC(=O)[C@@H](NC(=O)[C@H](C)NC(=O)[C@@H](NC(=O)[C@H](CO)NC(=O)[C@H](CC(C)C)NC(=O)[C@H](CCC(N)=O)NC(=O)[C@H](CO)NC(=O)[C@H](C)NC(=O)CC[C@H](NC(=O)CCCCCCCCCCCCCCCCCCCCC(=O)O)C(=O)O)[C@@H](C)O)C(C)C)C(=O)N[C@@H](CO)C(=O)N[C@@H](CC(=O)O)C(=O)N[C@@H](CCC(=O)O)C(=O)N[C@@H](CC(C)C)C(=O)N[C@@H](Cc1c[nH]cn1)C(=O)N[C@@H](CCCNC(=N)N)C(=O)N[C@@H](CC(C)C)C(=O)N[C@@H](CCC(N)=O)C(=O)N[C@@H](CC(=O)O)C(=O)N[C@@H](Cc1ccc(O)cc1)C(=O)N1CCC[C@H]1C(=O)N[C@@H](CCCNC(=N)N)C(=O)N[C@H](C(=O)N[C@@H](CC(=O)O)C(=O)N[C@H](C(=O)NCC(=O)N[C@@H](CO)C(=O)NCC(=O)N[C@@H](CO)C(=O)N1CCC[C@H]1C(N)=O)C(C)C)[C@@H](C)O) [calcitonin derivative M38]
0.017 |  | {C20 diacid-Trx′}-ASQLSTAVLGRLSEELHRLQDYPRTDVGSGSP-NH2 (reading uncertain) [calcitonin derivative M55]
0.017 |  | {C20 diacid-γGlu}-ASQLSTAVLGRLSQELHRLQDYPRTDVGSGSP-NH2 (SMILES CC(C)C[C@H](NC(=O)[C@H](CCCNC(=N)N)NC(=O)CNC(=O)[C@H](CC(C)C)NC(=O)[C@@H](NC(=O)[C@H](C)NC(=O)[C@@H](NC(=O)[C@H](CO)NC(=O)[C@H](CC(C)C)NC(=O)[C@H](CCC(N)=O)NC(=O)[C@H](CO)NC(=O)[C@H](C)NC(=O)CC[C@H](NC(=O)CCCCCCCCCCCCCCCCCCC(=O)O)C(=O)O)[C@@H](C)O)C(C)C)C(=O)N[C@@H](CO)C(=O)N[C@@H](CCC(N)=O)C(=O)N[C@@H](CCC(=O)O)C(=O)N[C@@H](CC(C)C)C(=O)N[C@@H](Cc1c[nH]cn1)C(=O)N[C@@H](CCCNC(=N)N)C(=O)N[C@@H](CC(C)C)C(=O)N[C@@H](CCC(N)=O)C(=O)N[C@@H](CC(=O)O)C(=O)N[C@@H](Cc1ccc(O)cc1)C(=O)N1CCC[C@H]1C(=O)N[C@@H](CCCNC(=N)N)C(=O)N[C@H](C(=O)N[C@@H](CC(=O)O)C(=O)N[C@H](C(=O)NCC(=O)N[C@@H](CO)C(=O)NCC(=O)N[C@@H](CO)C(=O)N1CCC[C@H]1C(N)=O)C(C)C)[C@@H](C)O) [calcitonin derivative M6]
0.016 |  | {C18 diacid-γGlu}-ASQLSTAVLGRLSDELHRLQDYPRTDVGSGSP-NH2 (SMILES CC(C)C[C@H](NC(=O)[C@H](CCCNC(=N)N)NC(=O)CNC(=O)[C@H](CC(C)C)NC(=O)[C@@H](NC(=O)[C@H](C)NC(=O)[C@@H](NC(=O)[C@H](CO)NC(=O)[C@H](CC(C)C)NC(=O)[C@H](CCC(N)=O)NC(=O)[C@H](CO)NC(=O)[C@H](C)NC(=O)CC[C@H](NC(=O)CCCCCCCCCCCCCCCCC(=O)O)C(=O)O)[C@@H](C)O)C(C)C)C(=O)N[C@@H](CO)C(=O)N[C@@H](CC(=O)O)C(=O)N[C@@H](CCC(=O)O)C(=O)N[C@@H](CC(C)C)C(=O)N[C@@H](Cc1c[nH]cn1)C(=O)N[C@@H](CCCNC(=N)N)C(=O)N[C@@H](CC(C)C)C(=O)N[C@@H](CCC(N)=O)C(=O)N[C@@H](CC(=O)O)C(=O)N[C@@H](Cc1ccc(O)cc1)C(=O)N1CCC[C@H]1C(=O)N[C@@H](CCCNC(=N)N)C(=O)N[C@H](C(=O)N[C@@H](CC(=O)O)C(=O)N[C@H](C(=O)NCC(=O)N[C@@H](CO)C(=O)NCC(=O)N[C@@H](CO)C(=O)N1CCC[C@H]1C(N)=O)C(C)C)[C@@H](C)O) [calcitonin derivative M39]
0.017 |  | {C20 diacid-Inp′}-ASQLSTAVLGRLSEELHRLQDYPRTDVGSGSP-NH2 [calcitonin derivative M56]
0.017 |  | {C20 diacid-γGlu}-ASQLSTAVLGRLSDELHRLQDYPRTDVGSGSP-NH2 (SMILES CC(C)C[C@H](NC(=O)[C@H](CCCNC(=N)N)NC(=O)CNC(=O)[C@H](CC(C)C)NC(=O)[C@@H](NC(=O)[C@H](C)NC(=O)[C@@H](NC(=O)[C@H](CO)NC(=O)[C@H](CC(C)C)NC(=O)[C@H](CCC(N)=O)NC(=O)[C@H](CO)NC(=O)[C@H](C)NC(=O)CC[C@H](NC(=O)CCCCCCCCCCCCCCCCCCC(=O)O)C(=O)O)[C@@H](C)O)C(C)C)C(=O)N[C@@H](CO)C(=O)N[C@@H](CC(=O)O)C(=O)N[C@@H](CCC(=O)O)C(=O)N[C@@H](CC(C)C)C(=O)N[C@@H](Cc1c[nH]cn1)C(=O)N[C@@H](CCCNC(=N)N)C(=O)N[C@@H](CC(C)C)C(=O)N[C@@H](CCC(N)=O)C(=O)N[C@@H](CC(=O)O)C(=O)N[C@@H](Cc1ccc(O)cc1)C(=O)N1CCC[C@H]1C(=O)N[C@@H](CCCNC(=N)N)C(=O)N[C@H](C(=O)N[C@@H](CC(=O)O)C(=O)N[C@H](C(=O)NCC(=O)N[C@@H](CO)C(=O)NCC(=O)N[C@@H](CO)C(=O)N1CCC[C@H]1C(N)=O)C(C)C)[C@@H](C)O) [calcitonin derivative M8]
